Target: human P-TEFb (Cdk9 (1-345)•Cyclin T1 (1-266)) (human) (UniProt P50750)
Experiment: SDS-PAGE of dissolved crystals

UniProt P50750, sequence (P50750 1-345, chain 1 of 2): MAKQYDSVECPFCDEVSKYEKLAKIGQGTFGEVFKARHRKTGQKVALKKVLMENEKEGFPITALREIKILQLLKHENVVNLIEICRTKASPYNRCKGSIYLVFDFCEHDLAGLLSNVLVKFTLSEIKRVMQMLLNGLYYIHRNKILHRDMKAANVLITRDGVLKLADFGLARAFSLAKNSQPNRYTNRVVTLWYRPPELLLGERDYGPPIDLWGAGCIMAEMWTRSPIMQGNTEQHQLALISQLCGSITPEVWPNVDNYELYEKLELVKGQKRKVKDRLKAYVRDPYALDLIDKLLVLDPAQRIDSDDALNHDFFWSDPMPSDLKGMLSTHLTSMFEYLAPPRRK
UniProt P50750, sequence (O60563 1-266, chain 2 of 2, further chain): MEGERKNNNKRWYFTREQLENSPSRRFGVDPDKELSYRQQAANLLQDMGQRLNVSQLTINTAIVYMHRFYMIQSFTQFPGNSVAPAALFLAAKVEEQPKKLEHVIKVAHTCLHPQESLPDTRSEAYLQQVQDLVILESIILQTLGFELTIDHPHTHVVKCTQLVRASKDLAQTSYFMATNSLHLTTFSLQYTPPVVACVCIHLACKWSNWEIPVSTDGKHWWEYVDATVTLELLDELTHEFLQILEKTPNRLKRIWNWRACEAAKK

Q: How did the stoichiometry N turn out when “HIV-1 Tat (1-86) (from UniProt P04608 1-86) (natural protein)” was run?
A: The stoichiometry N was 1.
